# Tests used:
# [1] = target: large-conductance calcium-activated potassium (BKCa) channel alpha subunit (rat (endogenous in mesenteric arteries)) (UniProt Q62976)
# [2] = target: large-conductance calcium-activated potassium (BKCa) channel alpha subunit (rat (endogenous in mesenteric arteries)) (UniProt Q62976); remark: listed apart in the source
# large-conductance calcium-activated potassium (BKCa) channel alpha subunit (rat (endogenous in mesenteric arteries)), sequence (Q62976 whole entry): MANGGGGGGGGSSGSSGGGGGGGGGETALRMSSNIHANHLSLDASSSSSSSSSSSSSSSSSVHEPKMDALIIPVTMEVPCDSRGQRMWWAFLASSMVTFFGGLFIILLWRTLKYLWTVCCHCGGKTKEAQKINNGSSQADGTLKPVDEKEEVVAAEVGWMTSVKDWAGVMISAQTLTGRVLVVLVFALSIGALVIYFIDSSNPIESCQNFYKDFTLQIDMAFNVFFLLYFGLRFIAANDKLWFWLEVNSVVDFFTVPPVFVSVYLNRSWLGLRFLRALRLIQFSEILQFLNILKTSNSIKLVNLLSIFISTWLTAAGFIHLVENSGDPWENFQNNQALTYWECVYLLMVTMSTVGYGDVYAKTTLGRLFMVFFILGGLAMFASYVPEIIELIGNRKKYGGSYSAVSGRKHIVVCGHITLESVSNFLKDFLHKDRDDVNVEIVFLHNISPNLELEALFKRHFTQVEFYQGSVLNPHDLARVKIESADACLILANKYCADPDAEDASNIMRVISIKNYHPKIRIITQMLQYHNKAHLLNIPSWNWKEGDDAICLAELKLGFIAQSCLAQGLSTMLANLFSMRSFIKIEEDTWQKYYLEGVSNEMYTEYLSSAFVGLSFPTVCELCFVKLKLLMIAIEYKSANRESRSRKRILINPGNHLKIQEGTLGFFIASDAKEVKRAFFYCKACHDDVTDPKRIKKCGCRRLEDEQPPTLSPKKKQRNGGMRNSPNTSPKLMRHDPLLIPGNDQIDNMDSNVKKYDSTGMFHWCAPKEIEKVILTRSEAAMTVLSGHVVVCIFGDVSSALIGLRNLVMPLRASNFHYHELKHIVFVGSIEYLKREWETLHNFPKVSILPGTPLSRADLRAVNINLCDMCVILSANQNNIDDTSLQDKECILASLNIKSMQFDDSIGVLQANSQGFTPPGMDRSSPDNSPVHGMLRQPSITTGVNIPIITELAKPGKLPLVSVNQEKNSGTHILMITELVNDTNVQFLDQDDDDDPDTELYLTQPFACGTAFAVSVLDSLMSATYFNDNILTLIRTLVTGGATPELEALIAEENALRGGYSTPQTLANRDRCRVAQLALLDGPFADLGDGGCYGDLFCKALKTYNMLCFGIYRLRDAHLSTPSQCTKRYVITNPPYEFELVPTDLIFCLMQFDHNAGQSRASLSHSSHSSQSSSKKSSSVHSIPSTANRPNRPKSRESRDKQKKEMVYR
# inositol 1,4,5-trisphosphate receptor 1, P29994 1-2750 (natural protein), sequence (P29994 whole entry): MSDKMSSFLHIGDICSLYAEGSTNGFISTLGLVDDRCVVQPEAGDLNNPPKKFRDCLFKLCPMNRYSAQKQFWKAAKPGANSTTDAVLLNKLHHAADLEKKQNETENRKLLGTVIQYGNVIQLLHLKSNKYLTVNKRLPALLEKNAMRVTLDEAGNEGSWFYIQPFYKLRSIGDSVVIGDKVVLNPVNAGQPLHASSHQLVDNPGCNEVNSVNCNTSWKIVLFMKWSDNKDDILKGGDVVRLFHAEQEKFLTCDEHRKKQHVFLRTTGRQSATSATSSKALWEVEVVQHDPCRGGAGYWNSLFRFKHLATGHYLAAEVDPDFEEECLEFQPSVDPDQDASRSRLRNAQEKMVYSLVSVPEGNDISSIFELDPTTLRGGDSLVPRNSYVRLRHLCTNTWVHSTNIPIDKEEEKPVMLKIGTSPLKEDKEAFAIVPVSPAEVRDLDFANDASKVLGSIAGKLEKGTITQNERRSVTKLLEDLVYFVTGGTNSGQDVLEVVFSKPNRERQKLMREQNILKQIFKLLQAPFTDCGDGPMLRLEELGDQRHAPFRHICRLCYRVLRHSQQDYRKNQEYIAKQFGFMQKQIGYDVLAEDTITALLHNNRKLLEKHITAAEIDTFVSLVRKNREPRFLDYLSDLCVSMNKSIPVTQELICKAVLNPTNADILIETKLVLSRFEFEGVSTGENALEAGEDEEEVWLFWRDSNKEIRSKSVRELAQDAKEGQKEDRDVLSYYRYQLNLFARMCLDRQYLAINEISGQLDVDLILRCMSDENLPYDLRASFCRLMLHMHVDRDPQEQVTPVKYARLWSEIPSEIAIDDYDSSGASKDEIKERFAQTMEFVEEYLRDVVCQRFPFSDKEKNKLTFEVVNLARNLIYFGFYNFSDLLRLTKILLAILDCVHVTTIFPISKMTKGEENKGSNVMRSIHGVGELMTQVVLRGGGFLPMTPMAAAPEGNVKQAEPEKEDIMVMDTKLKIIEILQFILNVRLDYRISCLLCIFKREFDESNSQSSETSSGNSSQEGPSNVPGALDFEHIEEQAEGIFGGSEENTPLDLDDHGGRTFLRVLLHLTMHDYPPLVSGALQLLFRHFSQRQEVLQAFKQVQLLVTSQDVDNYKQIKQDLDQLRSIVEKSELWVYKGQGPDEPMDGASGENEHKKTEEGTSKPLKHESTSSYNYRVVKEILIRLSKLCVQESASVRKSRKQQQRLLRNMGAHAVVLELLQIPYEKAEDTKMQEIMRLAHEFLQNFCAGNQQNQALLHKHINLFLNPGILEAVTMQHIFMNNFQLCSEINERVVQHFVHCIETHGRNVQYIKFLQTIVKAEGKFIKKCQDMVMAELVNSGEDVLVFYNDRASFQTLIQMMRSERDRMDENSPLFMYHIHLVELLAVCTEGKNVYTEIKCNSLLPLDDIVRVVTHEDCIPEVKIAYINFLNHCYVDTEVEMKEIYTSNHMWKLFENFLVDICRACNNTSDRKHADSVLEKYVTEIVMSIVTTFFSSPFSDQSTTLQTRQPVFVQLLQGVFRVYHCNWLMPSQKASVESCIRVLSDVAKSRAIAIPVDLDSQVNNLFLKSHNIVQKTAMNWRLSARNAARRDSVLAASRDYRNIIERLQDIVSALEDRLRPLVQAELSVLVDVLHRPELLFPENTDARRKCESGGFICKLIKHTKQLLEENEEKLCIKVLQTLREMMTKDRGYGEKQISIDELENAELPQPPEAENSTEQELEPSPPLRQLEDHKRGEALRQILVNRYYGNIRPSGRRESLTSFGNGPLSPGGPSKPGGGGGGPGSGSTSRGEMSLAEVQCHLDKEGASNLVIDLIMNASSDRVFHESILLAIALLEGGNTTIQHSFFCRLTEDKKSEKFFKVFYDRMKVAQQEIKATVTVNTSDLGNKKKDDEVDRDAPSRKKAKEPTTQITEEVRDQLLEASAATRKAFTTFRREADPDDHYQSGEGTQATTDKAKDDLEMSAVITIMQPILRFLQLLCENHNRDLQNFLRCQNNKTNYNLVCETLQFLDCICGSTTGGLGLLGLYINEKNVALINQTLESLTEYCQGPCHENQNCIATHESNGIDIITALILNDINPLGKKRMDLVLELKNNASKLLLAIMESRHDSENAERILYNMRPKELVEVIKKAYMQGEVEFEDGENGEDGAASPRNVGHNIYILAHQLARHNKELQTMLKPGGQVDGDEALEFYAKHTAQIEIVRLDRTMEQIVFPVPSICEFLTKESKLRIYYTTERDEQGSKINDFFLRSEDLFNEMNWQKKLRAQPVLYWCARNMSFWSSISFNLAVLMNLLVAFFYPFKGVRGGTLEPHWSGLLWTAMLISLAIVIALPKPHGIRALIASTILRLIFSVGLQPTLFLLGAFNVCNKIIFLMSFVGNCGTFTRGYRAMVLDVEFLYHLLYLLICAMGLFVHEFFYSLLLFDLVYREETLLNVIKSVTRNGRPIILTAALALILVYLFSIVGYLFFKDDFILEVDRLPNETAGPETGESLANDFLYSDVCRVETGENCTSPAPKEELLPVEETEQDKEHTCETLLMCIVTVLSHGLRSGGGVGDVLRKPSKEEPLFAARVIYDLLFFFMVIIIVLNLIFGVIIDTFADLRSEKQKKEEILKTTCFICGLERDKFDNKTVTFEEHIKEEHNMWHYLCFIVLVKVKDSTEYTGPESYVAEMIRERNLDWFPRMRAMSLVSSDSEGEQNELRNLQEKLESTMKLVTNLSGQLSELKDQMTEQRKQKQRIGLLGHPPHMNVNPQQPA
substance,measurement,setting,value
"inositol 1,4,5-trisphosphate receptor 1, P29994 1-2750 (natural protein)",whole-cell BKCa current density at +60 mV in mesenteric VSMCs of WKY rats before and after the IP3R agonist Adenophostin A,[1],142 pA/pF
same,whole-cell BKCa current density at +60 mV in mesenteric VSMCs of SHR before and after the IP3R agonist Adenophostin A,[2],65.6 pA/pF
